Source: patent US20250154231A1
Where two headings read alike, the source gives them in different places.

Key:
Test in all cases: cell-based or functional assay
[1] = biological target: SARS-CoV-2 spike (S) protein, Omicron BA.2 (SARS-CoV-2) (UniProt P0DTC2)
[2] = biological target: SARS-CoV-2 spike (S) protein, Omicron BA.2.75 (SARS-CoV-2) (UniProt P0DTC2)
[3] = biological target: SARS-CoV-2 spike (S) protein, Omicron BA.2.3.20 (SARS-CoV-2) (UniProt P0DTC2)
[4] = biological target: SARS-CoV-2 spike (S) protein, Omicron BA.2 (SARS-CoV-2) (UniProt P0DTC2); remark: listed apart in the source
[5] = biological target: SARS-CoV-2 spike (S) protein, Omicron BA.4/5 (SARS-CoV-2) (UniProt P0DTC2)
[6] = biological target: SARS-CoV-2 spike (S) protein, Omicron BA.4.6 (SARS-CoV-2) (UniProt P0DTC2)
[7] = biological target: SARS-CoV-2 spike (S) protein, Omicron BJ.1 (SARS-CoV-2) (UniProt P0DTC2)
[8] = biological target: SARS-CoV-2 spike (S) protein, Omicron BA.2.75.2 (SARS-CoV-2) (UniProt P0DTC2)
[9] = biological target: SARS-CoV-2 spike (S) protein, Victoria strain (SARS-CoV-2) (UniProt P0DTC2)
[10] = biological target: SARS-CoV-2 spike (S) protein, Omicron BA.2.75 (SARS-CoV-2) (UniProt P0DTC2); remark: listed apart in the source
[11] = biological target: SARS-CoV-2 Victoria spike (S) protein (SARS-CoV-2) (UniProt P0DTC2)
[12] = biological target: SARS-CoV-2 Omicron BA.2 spike (S) protein, pseudovirus construct (SARS-CoV-2) (UniProt P0DTC2)
[13] = biological target: SARS-CoV-2 Beta spike (S) protein (SARS-CoV-2) (UniProt P0DTC2)
[14] = biological target: SARS-CoV-2 Omicron BA.1.1 spike (S) protein, pseudovirus construct (SARS-CoV-2) (UniProt P0DTC2)
[15] = biological target: SARS-CoV-2 Omicron (BA.1) spike (S) protein, live virus isolate (SARS-CoV-2) (UniProt P0DTC2)
[16] = biological target: SARS-CoV-2 spike (S) protein, Omicron BA.2 (SARS-CoV-2) (UniProt P0DTC2); remark: listed apart in the source
[17] = biological target: SARS-CoV-2 spike (S) protein, Omicron BA.4/5 (SARS-CoV-2) (UniProt P0DTC2); remark: listed apart in the source
[18] = biological target: SARS-CoV-2 Omicron BA.4/5 spike (S) protein (SARS-CoV-2) (UniProt P0DTC2)
[19] = biological target: SARS-CoV-2 Omicron BA.1.1 spike (S) protein (SARS-CoV-2) (UniProt P0DTC2)
[20] = biological target: SARS-CoV-2 Gamma spike (S) protein (SARS-CoV-2) (UniProt P0DTC2)
[21] = biological target: SARS-CoV-2 Alpha (B.1.1.7) spike (S) protein (SARS-CoV-2) (UniProt P0DTC2)
[22] = biological target: SARS-CoV-2 Omicron BA.1 spike (S) protein of the pseudovirus (SARS-CoV-2) (UniProt P0DTC2)
[23] = biological target: SARS-CoV-2 Gamma (P.1) spike (S) protein (SARS-CoV-2) (UniProt P0DTC2)
[24] = biological target: SARS-CoV-2 Omicron BA.1 spike (S) protein of the live isolate (SARS-CoV-2) (UniProt P0DTC2)
[25] = biological target: SARS-CoV-2 Beta (B.1.351) spike (S) protein (SARS-CoV-2) (UniProt P0DTC2)
[26] = biological target: SARS-CoV-2 Alpha spike (S) protein (SARS-CoV-2) (UniProt P0DTC2)
[27] = biological target: SARS-CoV-2 spike (S) protein, Omicron BA.1.1 (SARS-CoV-2) (UniProt P0DTC2)
[28] = biological target: SARS-CoV-2 spike (S) protein, Omicron BA.1 (SARS-CoV-2) (UniProt P0DTC2)
[29] = biological target: SARS-CoV-2 Omicron BA.1 spike (S) protein, pseudovirus construct (SARS-CoV-2) (UniProt P0DTC2)
[30] = biological target: SARS-CoV-2 spike (S) protein, Victoria strain (SARS-CoV-2) (UniProt P0DTC2); remark: listed apart in the source
[31] = biological target: SARS-CoV-2 Delta spike (S) protein (SARS-CoV-2) (UniProt P0DTC2)
[32] = biological target: SARS-CoV-2 spike (S) protein, Omicron BA.2.75 (SARS-CoV-2) (UniProt P0DTC2); remark: listed apart in the source
[33] = biological target: SARS-CoV-2 Omicron BA.3 spike (S) protein (SARS-CoV-2) (UniProt P0DTC2)
[34] = biological target: SARS-CoV-2 spike (S) protein, Omicron BA.3 (SARS-CoV-2) (UniProt P0DTC2)
[35] = biological target: SARS-CoV-2 Omicron BA.3 spike (S) protein, pseudovirus construct (SARS-CoV-2) (UniProt P0DTC2)
[36] = biological target: SARS-CoV-2 Omicron BA.2 spike (S) protein (SARS-CoV-2) (UniProt P0DTC2)

Chain of Omi-29 (antibody) (VH): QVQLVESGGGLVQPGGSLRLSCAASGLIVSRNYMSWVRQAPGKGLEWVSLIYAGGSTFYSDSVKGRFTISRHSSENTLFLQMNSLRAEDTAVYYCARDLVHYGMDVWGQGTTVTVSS
Chain of Omi-29 (antibody) (VL): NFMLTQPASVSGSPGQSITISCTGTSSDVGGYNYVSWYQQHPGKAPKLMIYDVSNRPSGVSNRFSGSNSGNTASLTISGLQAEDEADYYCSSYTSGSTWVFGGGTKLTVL
Chain of Omi-18 (antibody) (VH): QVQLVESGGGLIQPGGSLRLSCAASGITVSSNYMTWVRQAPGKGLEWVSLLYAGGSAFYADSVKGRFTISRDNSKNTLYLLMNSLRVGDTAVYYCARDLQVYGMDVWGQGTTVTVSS
Chain of Omi-18 (antibody) (VL): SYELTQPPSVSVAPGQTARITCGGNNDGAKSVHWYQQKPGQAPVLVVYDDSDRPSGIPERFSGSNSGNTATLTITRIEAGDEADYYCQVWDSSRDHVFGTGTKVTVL
Chain of Omi-12 (antibody) (VH): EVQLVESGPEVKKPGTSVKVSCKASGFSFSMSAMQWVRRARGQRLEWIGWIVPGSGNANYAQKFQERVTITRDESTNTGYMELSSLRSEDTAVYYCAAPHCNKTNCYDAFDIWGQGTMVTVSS
Chain of Omi-12 (antibody) (VL): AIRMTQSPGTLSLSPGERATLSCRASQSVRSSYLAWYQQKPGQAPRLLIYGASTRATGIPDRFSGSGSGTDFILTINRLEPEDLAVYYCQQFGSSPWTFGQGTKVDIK

Omi-03 (antibody)
pseudovirus neutralisation IC50 [1]: 8 ng/mL
pseudovirus neutralisation IC50 [2]: 17 ng/mL
IC50, pseudoviral neutralization [3]: 20 ng/mL
IC50, pseudoviral neutralization [4]: 8 ng/mL
IC50, pseudoviral neutralization [5]: 17 ng/mL
IC50, pseudoviral neutralization [6]: 6 ng/mL
IC50, pseudoviral neutralization [7]: 14 ng/mL
IC50, pseudoviral neutralization [8]: 546 ng/mL
IC50, pseudoviral neutralization [9]: 3 ng/mL
IC50, pseudoviral neutralization [10]: 17 ng/mL
Authentic virus-IC50 [11]: 7 ng/mL
IC50, authentic virus neutralization [11]: 7 ng/mL
IC50, pseudovirus neutralization [11]: 3 ng/mL
Pseudovirus - IC50 [11]: 3 ng/mL
Pseudovirus - IC50 [12]: 8 ng/mL
IC50, authentic virus neutralization [13]: 9 ng/mL
Pseudovirus - IC50 [14]: 3 ng/mL
Authentic virus-IC50 [15]: 9 ng/mL
pseudovirus neutralisation IC50 [16]: 8 ng/mL
pseudovirus neutralisation IC50 [17]: 17 ng/mL
IC50, pseudovirus neutralization [18]: 17 ng/mL
IC50, authentic virus neutralization [19]: 15 ng/mL
IC50, pseudovirus neutralization [19]: 3 ng/mL
IC50, authentic virus neutralization [20]: 4 ng/mL
Authentic virus-IC50 [21]: 12 ng/mL
IC50, pseudovirus neutralization [22]: 5 ng/mL
Authentic virus-IC50 [23]: 4 ng/mL
IC50, authentic virus neutralization [24]: 9 ng/mL
Authentic virus-IC50 [25]: 9 ng/mL
IC50, authentic virus neutralization [26]: 12 ng/mL
pseudovirus neutralisation IC50 [27]: 3 ng/mL
pseudovirus neutralisation IC50 [28]: 5 ng/mL
Pseudovirus - IC50 [29]: 5 ng/mL
pseudovirus neutralisation IC50 [30]: 3 ng/mL
Authentic virus-IC50 [31]: 4 ng/mL
IC50, authentic virus neutralization [31]: 4 ng/mL
pseudovirus neutralisation IC50 [32]: 17 ng/mL
IC50, pseudovirus neutralization [33]: 22 ng/mL
pseudovirus neutralisation IC50 [34]: 22 ng/mL
Pseudovirus - IC50 [35]: 22 ng/mL
IC50, authentic virus neutralization [36]: 28 ng/mL
IC50, pseudovirus neutralization [36]: 8 ng/mL

Omi-12 (antibody)
pseudovirus neutralisation IC50 [1]: 3 ng/mL
pseudovirus neutralisation IC50 [2]: 3 ng/mL
IC50, pseudoviral neutralization [3]: 8 ng/mL
IC50, pseudoviral neutralization [4]: 3 ng/mL
IC50, pseudoviral neutralization [5]: 429 ng/mL
IC50, pseudoviral neutralization [6]: 74 ng/mL
IC50, pseudoviral neutralization [7]: 4 ng/mL
IC50, pseudoviral neutralization [8]: > 10000 ng/mL
IC50, pseudoviral neutralization [9]: 6 ng/mL
IC50, pseudoviral neutralization [10]: 3 ng/mL
Authentic virus-IC50 [11]: 5 ng/mL
IC50, authentic virus neutralization [11]: 5 ng/mL
IC50, pseudovirus neutralization [11]: 6 ng/mL
Pseudovirus - IC50 [11]: 6 ng/mL
Pseudovirus - IC50 [12]: 3 ng/mL
IC50, authentic virus neutralization [13]: 6 ng/mL
Pseudovirus - IC50 [14]: 2 ng/mL
Authentic virus-IC50 [15]: 4 ng/mL
pseudovirus neutralisation IC50 [16]: 3 ng/mL
pseudovirus neutralisation IC50 [17]: 429 ng/mL
IC50, pseudovirus neutralization [18]: 429 ng/mL
IC50, authentic virus neutralization [19]: 9 ng/mL
IC50, pseudovirus neutralization [19]: 2 ng/mL
IC50, authentic virus neutralization [20]: 3 ng/mL
Authentic virus-IC50 [21]: 3 ng/mL
IC50, pseudovirus neutralization [22]: 2 ng/mL
Authentic virus-IC50 [23]: 3 ng/mL
IC50, authentic virus neutralization [24]: 4 ng/mL
Authentic virus-IC50 [25]: 6 ng/mL
IC50, authentic virus neutralization [26]: 3 ng/mL
pseudovirus neutralisation IC50 [27]: 2 ng/mL
pseudovirus neutralisation IC50 [28]: 2 ng/mL
Pseudovirus - IC50 [29]: 2 ng/mL
pseudovirus neutralisation IC50 [30]: 6 ng/mL
Authentic virus-IC50 [31]: 3 ng/mL
IC50, authentic virus neutralization [31]: 3 ng/mL
pseudovirus neutralisation IC50 [32]: 3 ng/mL
IC50, pseudovirus neutralization [33]: 6 ng/mL
pseudovirus neutralisation IC50 [34]: 6 ng/mL
Pseudovirus - IC50 [35]: 6 ng/mL
IC50, authentic virus neutralization [36]: 10 ng/mL
IC50, pseudovirus neutralization [36]: 3 ng/mL

Omi-18 (antibody)
pseudovirus neutralisation IC50 [1]: 5 ng/mL
pseudovirus neutralisation IC50 [2]: 35 ng/mL
IC50, pseudoviral neutralization [3]: 11 ng/mL
IC50, pseudoviral neutralization [4]: 5 ng/mL
IC50, pseudoviral neutralization [5]: 5 ng/mL
IC50, pseudoviral neutralization [6]: 6 ng/mL
IC50, pseudoviral neutralization [7]: 5 ng/mL
IC50, pseudoviral neutralization [8]: 4800 ng/mL
IC50, pseudoviral neutralization [9]: 8 ng/mL
IC50, pseudoviral neutralization [10]: 35 ng/mL
Authentic virus-IC50 [11]: 41 ng/mL
IC50, authentic virus neutralization [11]: 41 ng/mL
IC50, pseudovirus neutralization [11]: 8 ng/mL
Pseudovirus - IC50 [11]: 8 ng/mL
Pseudovirus - IC50 [12]: 5 ng/mL
IC50, authentic virus neutralization [13]: 18 ng/mL
Pseudovirus - IC50 [14]: 2 ng/mL
Authentic virus-IC50 [15]: 6 ng/mL
pseudovirus neutralisation IC50 [16]: 5 ng/mL
pseudovirus neutralisation IC50 [17]: 5 ng/mL
IC50, pseudovirus neutralization [18]: 5 ng/mL
IC50, authentic virus neutralization [19]: 6 ng/mL
IC50, pseudovirus neutralization [19]: 2 ng/mL
IC50, authentic virus neutralization [20]: 16 ng/mL
Authentic virus-IC50 [21]: 38 ng/mL
IC50, pseudovirus neutralization [22]: 2 ng/mL
Authentic virus-IC50 [23]: 16 ng/mL
IC50, authentic virus neutralization [24]: 6 ng/mL
Authentic virus-IC50 [25]: 18 ng/mL
IC50, authentic virus neutralization [26]: 38 ng/mL
pseudovirus neutralisation IC50 [27]: 2 ng/mL
pseudovirus neutralisation IC50 [28]: 2 ng/mL
Pseudovirus - IC50 [29]: 2 ng/mL
pseudovirus neutralisation IC50 [30]: 8 ng/mL
Authentic virus-IC50 [31]: 25 ng/mL
IC50, authentic virus neutralization [31]: 25 ng/mL
pseudovirus neutralisation IC50 [32]: 35 ng/mL
IC50, pseudovirus neutralization [33]: 6 ng/mL
pseudovirus neutralisation IC50 [34]: 6 ng/mL
Pseudovirus - IC50 [35]: 6 ng/mL
IC50, authentic virus neutralization [36]: 7 ng/mL
IC50, pseudovirus neutralization [36]: 5 ng/mL

Omi-29 (antibody)
pseudovirus neutralisation IC50 [1]: 56 ng/mL
pseudovirus neutralisation IC50 [2]: > 10000 ng/mL
IC50, pseudoviral neutralization [3]: > 10000 ng/mL
IC50, pseudoviral neutralization [4]: 56 ng/mL
IC50, pseudoviral neutralization [5]: 396 ng/mL
IC50, pseudoviral neutralization [6]: 170 ng/mL
IC50, pseudoviral neutralization [7]: 25 ng/mL
IC50, pseudoviral neutralization [8]: > 10000 ng/mL
IC50, pseudoviral neutralization [9]: 14 ng/mL
IC50, pseudoviral neutralization [10]: > 10000 ng/mL
Authentic virus-IC50 [11]: 44 ng/mL
IC50, authentic virus neutralization [11]: 44 ng/mL
IC50, pseudovirus neutralization [11]: 14 ng/mL
Pseudovirus - IC50 [11]: 14 ng/mL
Pseudovirus - IC50 [12]: 56 ng/mL
IC50, authentic virus neutralization [13]: 48 ng/mL
Pseudovirus - IC50 [14]: 16 ng/mL
Authentic virus-IC50 [15]: 36 ng/mL
pseudovirus neutralisation IC50 [16]: 56 ng/mL
pseudovirus neutralisation IC50 [17]: 396 ng/mL
IC50, pseudovirus neutralization [18]: 396 ng/mL
IC50, authentic virus neutralization [19]: 52 ng/mL
IC50, pseudovirus neutralization [19]: 16 ng/mL
IC50, authentic virus neutralization [20]: 40 ng/mL
Authentic virus-IC50 [21]: 66 ng/mL
IC50, pseudovirus neutralization [22]: 17 ng/mL
Authentic virus-IC50 [23]: 40 ng/mL
IC50, authentic virus neutralization [24]: 36 ng/mL
Authentic virus-IC50 [25]: 48 ng/mL
IC50, authentic virus neutralization [26]: 66 ng/mL
pseudovirus neutralisation IC50 [27]: 16 ng/mL
pseudovirus neutralisation IC50 [28]: 17 ng/mL
Pseudovirus - IC50 [29]: 17 ng/mL
pseudovirus neutralisation IC50 [30]: 14 ng/mL
Authentic virus-IC50 [31]: 29 ng/mL
IC50, authentic virus neutralization [31]: 29 ng/mL
pseudovirus neutralisation IC50 [32]: > 10000 ng/mL
IC50, pseudovirus neutralization [33]: 64 ng/mL
pseudovirus neutralisation IC50 [34]: 64 ng/mL
Pseudovirus - IC50 [35]: 64 ng/mL
IC50, authentic virus neutralization [36]: 192 ng/mL
IC50, pseudovirus neutralization [36]: 56 ng/mL
